Reference: the supplement of paper PMC5998384

Columns and labels:
HeLa Kyoto [1] = experiment: solubility in G1/S (NP-40 vs SDS abundance) (log2 ratio); higher = more soluble; settings: cell cycle stage: G1/S
HeLa Kyoto [2] = experiment: melting temperature (median over replicates), in situ; higher = more thermally stable
HeLa Kyoto [3] = experiment: solubility change mitosis vs G1/S (difference of NP-40 vs SDS log2 ratios) (log2 ratio difference); higher = more soluble in mitosis
HeLa Kyoto [4] = experiment: thermal stability score vs G1/S (z-score of summed log2 fold changes over temperatures); higher = more thermally stable than in G1/S
[5] = cell cycle stage: early G1 (4.5 h after nocodazole release)
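Throughout, for melting temperature (median over replicates), in situ: HeLa Kyoto cells synchronized by double thymidine or nocodazole block, proteins quantified by TMT10plex mass spectrometry, three independent biological replicates.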
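Throughout, for solubility change mitosis vs G1/S (difference of NP-40 vs SDS log2 ratios): synchronized HeLa Kyoto cells (double thymidine block for G1/S, nocodazole release for mitosis), protein amounts in NP-40 versus SDS lysates quantified by mass spectrometry, three biological replicates.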
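Throughout, for solubility in G1/S (NP-40 vs SDS abundance): HeLa Kyoto cells arrested at G1/S by double thymidine block, proteins quantified by TMT10plex mass spectrometry in mild NP-40 versus SDS extracts, three biological replicates.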
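Throughout, for thermal stability score vs G1/S (z-score of summed log2 fold changes over temperatures): synchronized HeLa Kyoto cells, proteins quantified by TMT10plex mass spectrometry, three biological replicates, mitosis taken 0.5 h after nocodazole release, G1/S directly after double thymidine block.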

Chain of KCTD3 (chain, as listed by the source): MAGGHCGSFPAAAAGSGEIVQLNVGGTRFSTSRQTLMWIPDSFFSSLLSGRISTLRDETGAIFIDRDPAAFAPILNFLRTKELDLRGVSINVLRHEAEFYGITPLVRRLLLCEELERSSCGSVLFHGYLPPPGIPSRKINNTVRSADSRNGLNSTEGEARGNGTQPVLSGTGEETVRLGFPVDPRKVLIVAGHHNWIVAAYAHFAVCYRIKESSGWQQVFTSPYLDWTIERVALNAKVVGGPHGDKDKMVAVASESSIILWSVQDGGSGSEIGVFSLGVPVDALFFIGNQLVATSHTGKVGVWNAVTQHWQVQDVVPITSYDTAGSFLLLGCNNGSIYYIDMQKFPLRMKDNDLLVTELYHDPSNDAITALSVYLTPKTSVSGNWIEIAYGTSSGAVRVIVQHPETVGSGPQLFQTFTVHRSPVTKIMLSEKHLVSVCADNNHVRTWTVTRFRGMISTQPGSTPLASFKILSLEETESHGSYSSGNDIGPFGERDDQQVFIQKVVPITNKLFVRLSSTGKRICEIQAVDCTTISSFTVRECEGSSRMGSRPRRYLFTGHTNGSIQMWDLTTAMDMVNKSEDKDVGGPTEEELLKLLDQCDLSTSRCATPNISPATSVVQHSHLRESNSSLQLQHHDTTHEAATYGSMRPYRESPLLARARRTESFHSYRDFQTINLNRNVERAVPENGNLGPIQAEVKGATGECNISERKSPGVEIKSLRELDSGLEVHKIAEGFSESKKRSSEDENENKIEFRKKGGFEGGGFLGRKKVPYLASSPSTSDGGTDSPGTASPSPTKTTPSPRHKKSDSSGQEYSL
Chain of HNRNPU (chain, as listed by the source): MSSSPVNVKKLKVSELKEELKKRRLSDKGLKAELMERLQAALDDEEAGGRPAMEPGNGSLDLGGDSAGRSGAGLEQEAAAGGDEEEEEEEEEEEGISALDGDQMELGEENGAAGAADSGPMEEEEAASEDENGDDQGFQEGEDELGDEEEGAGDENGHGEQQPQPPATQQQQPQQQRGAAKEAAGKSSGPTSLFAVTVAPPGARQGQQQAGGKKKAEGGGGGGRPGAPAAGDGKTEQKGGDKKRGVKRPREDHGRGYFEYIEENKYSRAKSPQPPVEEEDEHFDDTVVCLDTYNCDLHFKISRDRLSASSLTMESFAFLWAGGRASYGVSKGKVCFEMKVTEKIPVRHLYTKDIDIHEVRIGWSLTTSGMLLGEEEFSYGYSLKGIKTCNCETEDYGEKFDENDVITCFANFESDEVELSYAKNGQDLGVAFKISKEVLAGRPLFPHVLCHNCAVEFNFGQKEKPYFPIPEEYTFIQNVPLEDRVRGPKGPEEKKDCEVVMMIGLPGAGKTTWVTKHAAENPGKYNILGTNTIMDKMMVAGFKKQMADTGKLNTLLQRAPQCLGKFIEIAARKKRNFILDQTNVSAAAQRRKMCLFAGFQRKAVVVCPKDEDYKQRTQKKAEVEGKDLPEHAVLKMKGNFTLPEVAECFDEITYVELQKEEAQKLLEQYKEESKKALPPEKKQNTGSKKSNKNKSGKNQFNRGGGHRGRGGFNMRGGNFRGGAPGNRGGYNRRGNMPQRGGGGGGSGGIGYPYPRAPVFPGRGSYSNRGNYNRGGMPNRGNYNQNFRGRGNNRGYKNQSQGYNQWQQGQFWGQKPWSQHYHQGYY
Chain of HSPA5 (chain, as listed by the source): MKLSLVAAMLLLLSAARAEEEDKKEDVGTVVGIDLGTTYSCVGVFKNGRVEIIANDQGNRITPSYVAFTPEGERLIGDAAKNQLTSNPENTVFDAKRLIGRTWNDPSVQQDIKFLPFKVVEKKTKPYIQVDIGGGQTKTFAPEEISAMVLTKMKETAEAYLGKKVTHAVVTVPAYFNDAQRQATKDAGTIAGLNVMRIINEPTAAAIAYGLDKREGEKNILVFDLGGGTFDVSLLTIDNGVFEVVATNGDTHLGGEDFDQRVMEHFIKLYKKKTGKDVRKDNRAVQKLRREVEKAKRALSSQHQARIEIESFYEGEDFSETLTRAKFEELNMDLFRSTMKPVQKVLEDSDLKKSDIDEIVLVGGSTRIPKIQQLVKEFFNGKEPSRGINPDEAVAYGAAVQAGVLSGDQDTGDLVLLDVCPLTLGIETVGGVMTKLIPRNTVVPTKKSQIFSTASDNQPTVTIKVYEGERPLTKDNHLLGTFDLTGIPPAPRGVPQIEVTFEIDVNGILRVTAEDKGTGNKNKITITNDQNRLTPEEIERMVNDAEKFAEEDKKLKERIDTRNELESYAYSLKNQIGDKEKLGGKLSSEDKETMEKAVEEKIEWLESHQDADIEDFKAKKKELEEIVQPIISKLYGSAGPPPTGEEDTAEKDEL
Chain of HDGFRP2 (chain, as listed by the source): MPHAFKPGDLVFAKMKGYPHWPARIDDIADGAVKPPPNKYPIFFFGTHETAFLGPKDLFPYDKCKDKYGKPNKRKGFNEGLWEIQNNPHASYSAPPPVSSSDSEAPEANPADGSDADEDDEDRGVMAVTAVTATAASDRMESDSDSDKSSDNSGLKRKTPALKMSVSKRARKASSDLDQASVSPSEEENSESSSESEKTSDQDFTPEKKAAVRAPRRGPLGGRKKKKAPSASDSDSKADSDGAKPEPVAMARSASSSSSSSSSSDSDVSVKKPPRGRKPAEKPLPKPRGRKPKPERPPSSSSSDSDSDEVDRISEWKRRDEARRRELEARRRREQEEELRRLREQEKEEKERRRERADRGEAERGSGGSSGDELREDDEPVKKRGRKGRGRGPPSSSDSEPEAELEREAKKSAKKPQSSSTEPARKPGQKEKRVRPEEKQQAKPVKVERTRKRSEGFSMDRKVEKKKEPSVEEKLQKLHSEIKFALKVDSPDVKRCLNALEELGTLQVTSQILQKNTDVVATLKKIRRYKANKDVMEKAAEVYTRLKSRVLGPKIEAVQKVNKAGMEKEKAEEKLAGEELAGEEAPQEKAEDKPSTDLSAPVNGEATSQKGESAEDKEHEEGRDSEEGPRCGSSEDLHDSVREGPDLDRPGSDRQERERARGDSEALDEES

Substance	solubility in G1/S (log2) (HeLa Kyoto [1])	melting temperature (HeLa Kyoto [2]; cell cycle stage: G1/S) [°C]	solubility change mitosis (log2) (HeLa Kyoto [3])	thermal stability score (HeLa Kyoto [4]; [5])	thermal stability score (HeLa Kyoto [4]; cell cycle stage: mitosis)	melting temperature (HeLa Kyoto [2]; cell cycle stage: mitosis) [°C]
DIP2A	-0.104	51.3	-0.0755	0.00154	0.398	–
DIP2B	-0.125	53.4	-0.12	-1.32	-2.08	53.1
DMXL1	-0.236	51.4	-0.0423	0.592	1.02	50.9
DNAJA2	0.258	51.7	-0.191	-0.554	-2.34	51.7
DNAJB6	-0.0238	52.8	0.0684	0.898	1.65	49.8
DNAJC13	-0.463	50.8	-0.026	-0.329	-1.08	50.3
DOCK7	-0.219	48.2	-0.188	0.562	1.42	49
DYNC1H1	-0.318	51.8	-0.141	0.0561	2.96	51.2
EED	-0.587	49.7	0.102	1.42	1.21	50.2
EHBP1	0.0745	50.3	-0.0155	0.393	0.935	52.4
EHBP1L1	-0.0555	49.7	-0.0696	-1.13	2.05	49.1
ERP29	0.456	54.6	0.169	2.19	-0.433	55.7
FAM136A	0.101	52.9	0.0886	-3.91	-5.74	53.3
FAM208A	-0.847	49.7	0.524	0.605	0.529	50.2
FNDC3B	-0.0341	47.9	0.0529	1.73	3.59	50.5
GAPDH	0.191	59.5	-0.0817	-2.02	-3.87	60.3
GCC2	0.461	48.9	-0.00143	0.337	1.48	49.4
GLUD1	0.197	57.5	-0.0663	2.33	-0.967	57.2
GNL2	-2.3	51.2	1.08	4.89	6.37	52.7
GTF3C1	-0.378	47.5	-0.00776	1.22	3.47	49.4

Substance	solubility in G1/S (log2) (HeLa Kyoto [1])	melting temperature (HeLa Kyoto [2]; cell cycle stage: G1/S) [°C]	solubility change mitosis (log2) (HeLa Kyoto [3])	thermal stability score (HeLa Kyoto [4]; [5])	thermal stability score (HeLa Kyoto [4]; cell cycle stage: mitosis)	melting temperature (HeLa Kyoto [2]; cell cycle stage: mitosis) [°C]
HDGFRP2	-0.376	54.3	0.275	-0.27	-1.13	53.9
HECTD1	-0.212	50.4	-0.16	0.479	-0.0167	50.4
HINT3	0.186	55.1	-0.161	-1.15	-1.14	54.7
HNRNPU	-0.381	47.1	0.232	7.74	17.8	49.5
HSP90AB1	-0.0892	51.3	-0.125	0.311	0.779	51.1
HSPA5	0.316	55.5	0.0735	3.25	3.15	56.9
HUWE1	-0.226	52	-0.136	0.946	0.312	51.4
KCTD3	-0.0736	57.6	0.0231	-2.92	-4.02	56.7
KIAA1429	-0.435	47.9	0.17	0.289	0.336	50.4
KPNA1	0.00375	49	-0.102	1.89	3.16	49.7
KPNA6	0.0416	47.6	-0.0516	1.85	4.59	48.8
LAMA1	-0.219	51.7	0.051	5.02	10	52.9
LAMB2	0.034	53	-0.116	2.43	3.75	53.9
LRP6	0.027	52.7	0.112	-4.02	-2.07	53.1
LTN1	-0.347	50.1	-0.0806	0.696	1.04	48.8
MAAAAAAAVAGVGRGGGGAEPRQERSRARGWAGVERSEGRRMEPGEELEEEGSPGGREDGFTAEHLAAEAMAADMDPWLVFDARTTPATELDAWLAKYPPSQVTRYGDPGSPNSEPVGWIAVYGQGYSPNSGDVQGLQAAWEALQTSGRPITPGTLRQLAITHHVLSGKWLMHLAPGFKLDHAWAGIARAVVEGQLQVAKVSPRAKEGGRQVICVYTDDFTDRLGVLEADSAIRAAGIKCLLTYKPDVYTYLGIYRANRWHLCPTLYESRFQLGGSARGSRVLDRANNVELT [C11ORF68]	0.585	51.6	-0.0653	0.634	-0.663	51.9
MAAAAASHLNLDALREVLECPICMESFTEEQLRPKLLHCGHTICRQCLEKLLASSINGVRCPFCSKITRITSLTQLTDNLTVLKIIDTAGLSEAVGLLMCRSCGRRLPRQFCRSCGLVLCEPCREADHQPPGHCTLPVKEAAEERRRDFGEKLTRLRELMGELQRRKAALEGVSKDLQARYKAVLQEYGHEERRVQDELARSRKFFTGSLAEVEKSNSQVVEEQSYLLNIAEVQAVSRCDYFLAKIKQADVALLEETADEEEPELTASLPRELTLQDVELLKVGHVGPLQIGQAVKKPRTVNVEDSWAMEATASAASTSVTFREMDMSPEEVVASPRASPAKQRGPEAASNIQQCLFLKKMGAKGSTPGMFNLPVSLYVTSQGEVLVADRGNYRIQVFTRKGFLKEIRRSPSGIDSFVLSFLGADLPNLTPLSVAMNCQGLIGVTDSYDNSLKVYTLDGHCVACHRSQLSKPWGITALPSGQFVVTDVEGGKLWCFTVDRGSGVVKYSCLCSAVRPKFVTCDAEGTVYFTQGLGLNLENRQNEHHLEGGFSIGSVGPDGQLGRQISHFFSENEDFRCIAGMCVDARGDLIVADSSRKEILHFPKGGGYSVLIREGLTCPVGIALTPKGQLLVLDCWDHCIKIYSYHLRRYSTP [TRIM32]	-0.286	51.8	0.0329	0.931	0.623	52.2
MAAAAAVEAAAPMGALWGLVHDFVVGQQEGPADQVAADVKSGNYTVLQVVEALGSSLENPEPRTRARAIQLLSQVLLHCHTLLLEKEVVHLILFYENRLKDHHLVIPSVLQGLKALSLCVALPPGLAVSVLKAIFQEVHVQSLPQVDRHTVYNIITNFMRTREEELKSLGADFTFGFIQVMDGEKDPRNLLVAFRIVHDLISRDYSLGPFVEELFEVTSCYFPIDFTPPPNDPHGIQREDLILSLRAVLASTPRFAEFLLPLLIEKVDSEVLSAKLDSLQTLNACCAVYGQKELKDFLPSLWASIRREVFQTASERVEAEGLAALHSLTACLSRSVLRADAEDLLDSFLSNILQDCRHHLCEPDMKLVWPSAKLLQAAAGASARACDSVTSNVLPLLLEQFHKHSQSSQRRTILEMLLGFLKLQQKWSYEDKDQRPLNGFKDQLCSLVFMALTDPSTQLQLVGIRTLTVLGAQPDLLSYEDLELAVGHLYRLSFLKEDSQSCRVAALEASGTLAALYPVAFSSHLVPKLAEELRVGESNLTNGDEPTQCSRHLCCLQALSAVSTHPSIVKETLPLLLQHLWQVNRGNMVAQSSDVIAVCQSLRQMAEKCQQDPESCWYFHQTAIPCLLALAVQASMPEKEPSVLRKVLLEDEVLAAMVSVIGTATTHLSPELAAQSVTHIVPLFLDGNVSFLPENSFPSRFQPFQDGSSGQRRLIALLMAFVCSLPRNVEIPQLNQLMRELLELSCCHSCPFSSTAAAKCFAGLLNKHPAGQQLDEFLQLAVDKVEAGLGSGPCRSQAFTLLLWVTKALVLRYHPLSSCLTARLMGLLSDPELGPAAADGFSLLMSDCTDVLTRAGHAEVRIMFRQRFFTDNVPALVQGFHAAPQDVKPNYLKGLSHVLNRLPKPVLLPELPTLLSLLLEALSCPDCVVQLSTLSCLQPLLLEAPQVMSLHVDTLVTKFLNLSSSPSMAVRIAALQCMHALTRLPTPVLLPYKPQVIRALAKPLDDKKRLVRKEAVSARGEWFLLGSPGS [MMS19]	-0.14	50.3	-0.141	-0.678	0.247	49.8
MAAAAELSLLEKSLGLSKGNKYSAQGERQIPVLQTNNGPSLTGLTTIAAHLVKQANKEYLLGSTAEEKAIVQQWLEYRVTQVDGHSSKNDIHTLLKDLNSYLEDKVYLTGYNFTLADILLYYGLHRFIVDLTVQEKEKYLNVSRWFCHIQHYPGIRQHLSSVVFIKNRLYTNSH [EEF1E1]	0.394	48.6	0.0967	-0.612	-0.172	49.7
